Data on three molecules can be found in publication PMC3111228 (The Journal of neuroscience : the official journal of the …, 2011).

The target of the experiment is recombinant CaM (calmodulin) (UniProt P0DP23 1-149). Put plainly: pull-down.

B1: GST-mGluR1-Cprox with mGluR5 888-EKSTRGQHL-896 in place of 901-…-909 (domain or fragment)
chain: PERNVRSAFTTSDVVRMHVGDGKLPCRSNTFLNIFRRKKPGAGNANSNGKSVSWSEPGGEKSTRGQHLWQRLSVHVKTNETACNQTAVIKPLTKSYQGSGKSLTFSDASTKTLYNVEE
On to B1, for which the binding result is reported as “binds”.

B2: GST-mGluR1 V909L (domain or fragment)
chain: PERNVRSAFTTSDVVRMHVGDGKLPCRSNTFLNIFRRKKPGAGNANSNGKSVSWSEPGGRQAPKGQHLWQRLSVHVKTNETACNQTAVIKPLTKSYQGSGKSLTFSDASTKTLYNVEE
Consider B2, for which the binding result is recorded as “binds”.

B3: GST-mGluR5-Cprox with EKST exchanged (domain or fragment)
chain: PERNVRSAFTTSTVVRMHVGDGKSSSAASRSSSLVNLWKRRGSSGETLSSNGKSVTWAQNRQAPRGQHLWQRLSVHINKKENPNQTAVIKPFPKSTENRGPGAAAGGGSGPGVAGAG
For the molecule B3, the binding result was “binds”.
